# Data: article PMC6222646, “HIV-1 Integrase-Targeted Short Peptides Derived from a Viral Protein R Sequence” (Molecules : A Journal of Synthetic Chemistry and Natural …, 2018)
# Target: HIV-1 integrase (IN) (HIV-1)
# Assay: not given
Substance,3'-P IC50 (in vitro IN 3'-processing assay; data not shown),ST IC50 (in vitro IN strand transfer assay; data not shown)
Vpr (69–75) peptide with the amino-terminal Phe (Vpr69) replaced with Glu (from UniProt P12520 69-75),> 111 µM,> 111 µM

# Target: HIV-1 integrase (IN) (HIV-1)
# Assay: not given
# Remark: another data set of the same source
Substance,3'-P IC50 (in vitro IN 3'-processing assay),ST IC50 (in vitro IN strand transfer assay)
peptide 8b (AIHFRIG-amide),> 111 µM,> 111 µM
peptide 3c (Ac-FIHFRAG-amide),208 µM,28 µM
peptide 7c (Ac-FAHFRIG-amide),> 333 µM,127 µM
peptide 6a (FIAFRIG),17.4 µM,6.7 µM
peptide 5a (FIHARIG),> 111 µM,46.6 µM
peptide 7a (FAHFRIG),> 111 µM,73.5 µM
peptide 5b (FIHARIG-amide),> 111 µM,> 111 µM
peptide 4c (Ac-FIHFAIG-amide),> 333 µM,81 µM
peptide 2c (Ac-FIHFRIA-amide),74.5 µM,30.4 µM
peptide 4a (FIHFAIG),> 111 µM,> 111 µM
peptide 12a (FIBFRIG),6.5 µM,2.2 µM
peptide 7b (FAHFRIG-amide),> 111 µM,> 111 µM
peptide 8c (Ac-AIHFRIG-amide),> 333 µM,46 µM
peptide 2b (FIHFRIA-amide),> 111 µM,60.6 µM
peptide 5c (Ac-FIHARIG-amide),> 333 µM,117 µM
peptide 6c (Ac-FIAFRIG-amide),94 µM,3.5 µM
peptide 3b (FIHFRAG-amide),> 111 µM,> 111 µM
peptide 3a (FIHFRAG),66.5 µM,22.4 µM
peptide 2a (FIHFRIA),> 111 µM,34.7 µM
peptide 1a (FIHFRIG),17.6 µM,1.3 µM
peptide 6b (FIAFRIG-amide),95.4 µM,35 µM
peptide 8a (AIHFRIG),86.3 µM,22.7 µM
peptide 14a (BIHFRIG),7.2 µM,2.1 µM
peptide 9a (FIHFRBG),20 µM,4.3 µM
peptide 4b (FIHFAIG-amide),> 111 µM,> 111 µM
peptide 13a (FBHFRIG),37 µM,20 µM
peptide 11a (FIHBRIG),34 µM,4.2 µM
peptide 10a (FIHFBIG),> 333 µM,48 µM
peptide 15 (Biotin-linker-BIHFRIG),32 µM,2.3 µM

# Target: HIV-1 integrase (IN) (HIV-1)
# Assay: cross-linking
row,Substance,stoichiometry N
1,peptide 15 (Biotin-linker-BIHFRIG),1
